Reference: US8748176B2, “Generation of choroid plexus epithelial cells from human embryonic stem cells” (The Regents of the University of California, priority 2011, dated 2014)

B1: BMP4: Bone Morphogenetic Protein 4 (GeneID: 652), recombinant, commercially available (R&D Systems) (protein, UniProt P12644 293-408, looked up)
Bone morphogenetic protein 4: SPKHHSQRARKKNKNCRRHSLYVDFSDVGWNDWIVAPPGYQAFYCHGDCPFPLADHLNSTNHAIVQTLVNSVNSSIPKACCVPTELSAISMLYLDEYDKVVLKNYQEMVVEGCGCR

Assays:
primary CPEC vesicles = assay: CPEC vesicle secretion assay with secretion inhibitors, primary CPECs; assay type: cell-based, mouse; conditions: 100 uM acetazolamide and 5 mM ouabain together, 24 hrs; regrew upon withdrawal
From the text: (§1) To assess functional activity, we adopted a well-established in vitro assay for CPEC vesicle formation and secretion (33, 34). As described previously using this assay, primary dissociated CPECs on Matrigel self-assembled into hollow vesicles that grew in diameter, collapsed after treatment with the secretion inhibitors acetazolamide and ouabain, and regrew upon inhibitor withdrawal (FIG. 5A-G). Indistinguishable vesicles formed from dissociated SFEBq aggregates treated with BMP4 (n=6/6 independent cultures), but not from controls (n=0/6; FIGS. 5H,I). Like the primary CPEC vesicles, the SFEBq-derived vesicles were Aqp1 positive (FIG. 5I, inset), grew (FIGS. 5J,K), collapsed after exposure to the secretion inhibitors (FIG. 5L), and recovered after inhibitor removal (FIG. 5M).
(§2) Primary CP cells or SFEBq-derived cells were cultured on Matrigel as previously described (33, 34). Briefly, Matrigel (BD Biosciences, San Jose, Calif.) was mixed 1:1 with DMEM (Invitrogen) and incubated for at least 30 min at 37 C. BMP4-treated SFEBq aggregates at 12 DIV were dissociated with TrypLE Express (Invitrogen) and plated at 500,000 to 600,000 cells/well onto Matrigel-coated 6-well plates in DMEM with 10% FBS, 2 mM L-glutamine, NEAA, and sodium pyruvate (Invitrogen). […]

SFEBq-derived vesicles = assay: CPEC vesicle secretion assay with secretion inhibitors, mESC-derived vesicles; assay type: cell-based, mouse; conditions: 100 uM acetazolamide and 5 mM ouabain together, 24 hrs; recovered after removal
From the text: as §1, §2

mESC-derived NECs = assay: BMP4 treatment of mESC-derived SFEBq aggregates, CPEC/NEC marker RT-qPCR; assay type: cell-based, mouse
Method: Significant and similar levels of CPEC gene induction were also seen with one-time BMP4 addition alone (data not shown). These findings indicate a relatively short and early critical period in culture for BMP4-mediated CPEC marker induction, which occurs at the expense of NEC markers.
(§3) These were performed as described (21, 26) on a StepOne Plus (Applied Biosystems, Carlsbad, Calif.) using 18S normalization and Excel for graphing and statistics (two-tailed t-tests assuming equal variance). All primers and amplicons were validated as described (21, 26). All studies represent n>2 biological replicates per condition, unless otherwise specified.
Neural differentiation was adapted from Eiraku et al. (29). Briefly, mESCs were passaged for two hours onto gelatin-coated plates to reduce MEF load, dissociated to single cells using trypsin, then plated at varying concentrations onto ultra-low attachment U-bottom 96-well plates (Corning #7007, Lowell, Mass.) to form SFEBq aggregates. Differentiation media (29) was replaced initially, then every other day, with fresh media containing 0.5 to 50 ng/ml BMP4 (R&D Systems). Neural rosette (NR) cultures were based on the Elkabetz et al. method (30). […] For the combined SFEBq/NR method, we first generated SFEBq aggregates for 5 DIV, then transferred aggregates into adherent mNR conditions for another 2 DIV (7 DIV total).

[1] = system: mESC-derived NECs plated as adherent monolayers; assay: combined aggregation-monolayer system, CPEC markers by RT-qPCR and immunocytochemistry; assay type: cell-based, mouse
Method: In addition to direct BMP4 applications to SFEBq aggregates, we also dissociated SFEBq aggregates into single cells after 5DIV (i.e. after they had differentiated into NECs), plated them as adherent monolayers onto PDL-laminin-coated plates at 300,000-600,000 cells, then added BMP4 (0.5-50 ng/ml BMP4) for another 5 days (10DIV total). This combined aggregation-monolayer system allows all NECs to experience the same BMP4 concentration in culture. […] The optimal concentration of BMP4 is probably between 0.5 ng/ml-50 ng/ml BMP4 in this system.
as §3

[2] = system: dissociated SFEBq aggregates; assay: in vitro assay for CPEC vesicle formation on Matrigel; assay type: cell-based, mouse; conditions: SFEBq aggregates treated with 50 ng/ml BMP4; controls n=0/6
From the text: as §1, §2

H1-derived NRs = assay: BMP4 addition to hESC-derived neural rosettes (NR method); assay type: cell-based, human; conditions: BMP4 0.5-15 ng/ml, evident by 7 DIV after addition
From the text: We then attempted to derive iCPECs from human ESCs using an analogous approach. To first generate NECs, we used the Zhang et al. method (35) to generate neural rosettes (NRs) (FIGS. 6A,B) with predominant forebrain character (30). […] Eventually, the hESC-derived vesicles transformed into flat epithelial sheets (FIG. 6D), and occasional multivesicular bodies also formed (FIG. 6E). […] H9 cultures yielded similar morphologic changes, although NR-to-vesicle transformations were less prominent.
1) Neural rosette (NR) method. Neural induction with NR formation was adapted from Zhang et al. (35). Human ESC colonies were partially dissociated with 1 mg/ml dispase, then plated in suspension to form embryoid bodies (EBs) for 3 DIV. EBs were then transferred to suspension culture with neural induction media—DMEM/F12 (Invitrogen), N2 (Invitrogen), NEAA, heparin (2 ug/ml) and FGF2 (20 ng/ml)—for another two days. On 6 DIV, EBs were transferred to adherent PDL/laminin-coated plates with neural induction media, which was fully replaced every other day. On 16 DIV, media was fully replaced with neural induction media containing BMP4 (0.5-15 ng/ml), with full media replacement every other day. […] The SFEBq media was changed every 3 days, with or without fresh BMP4, and the culture was analyzed after 1-2 weeks of BMP4 incubation, with greater CPEC differentiation detected at 2 weeks.

H9 hESC SFEBq aggregates = assay: BMP4 applied to H9 hESC SFEBq aggregates, CPEC marker expression; assay type: cell-based, human; conditions: BMP4 0-15 ng/ml, 18 to 24-DIV aggregates
Method: We also generated human CPECs by applying the SFEBq neural induction method to human ESCs (H9 line). H9 hESCs were optimized for aggregate size and assessed for NEC gene expression over time. 9000-cell SFEBq aggregates were optimal, and NEC expression plateaued by 18-24 DIV. BMP4 (0-15 ng/ml) was applied to 12-, 15-, 18-, 21-, and 24-DIV aggregates. […] Based on RT-qPCR studies, peak expression of NEC markers, but not radial glial markers, coincided with the 21 DIV aggregates.
1) Neural rosette (NR) method. Neural induction with NR formation was adapted from Zhang et al. (35). Human ESC colonies were partially dissociated with 1 mg/ml dispase, then plated in suspension to form embryoid bodies (EBs) for 3 DIV. EBs were then transferred to suspension culture with neural induction media—DMEM/F12 (Invitrogen), N2 (Invitrogen), NEAA, heparin (2 ug/ml) and FGF2 (20 ng/ml)—for another two days. On 6 DIV, EBs were transferred to adherent PDL/laminin-coated plates with neural induction media, which was fully replaced every other day. On 16 DIV, media was fully replaced with neural induction media containing BMP4 (0.5-15 ng/ml), with full media replacement every other day. 2) Aggregate (SFEBq) method. […] The SFEBq media was changed every 3 days, with or without fresh BMP4, and the culture was analyzed after 1-2 weeks of BMP4 incubation, with greater CPEC differentiation detected at 2 weeks.

Molecule | vesicle response to secretion inhibitors (primary CPEC vesicles) | vesicle response to secretion inhibitors (SFEBq-derived vesicles) | CPEC markers Ttr, Lmx1a, and Msx1 induction (mESC-derived NECs; 5-day aggregates, BMP4 5 or 50 ng/ml for 7 DIV) | CPEC markers Aqp1 and Cldn1 induction (mESC-derived NECs; 5-day aggregates, BMP4 concentration-dependent) | NEC markers Sox1 and Foxg1 expression (mESC-derived NECs; with increasing BMP4 concentration) | CPEC markers by RT-qPCR at 50 ng/ml ([1]; 50 ng/ml BMP4) | optimal BMP4 concentration for CPEC marker upregulation ([1]; 0.5-50 ng/ml BMP4 for 5 days, 10DIV total) | independent cultures forming vesicles on Matrigel [2] | morphologic transformation of neural rosettes (H1-derived NRs) | CPEC markers Ttr, Otx2, and Lmx1a expression (H9 hESC SFEBq aggregates)
CC(=O)Nc1nnc(S(N)(=O)=O)s1 [acetazolamide] | collapsed | collapsed | – | – | – | – | – | – | – | –
C[C@@H]1O[C@@H](O[C@H]2C[C@@H](O)[C@]3(CO)[C@H]4[C@H](O)C[C@]5(C)[C@@H](C6=CC(=O)OC6)CC[C@]5(O)[C@@H]4CC[C@]3(O)C2)[C@H](O)[C@H](O)[C@H]1O [ouabain] | collapsed | collapsed | – | – | – | – | – | – | – | –
B1 | – | – | markedly induced | strongly induced | downregulated | down-regulation of CPEC markers | 5 ng/mL | 6/6 | transformed directly into expanding vesicular structures | upregulated
